Assays:
Walker 256 = assay: Concentration of 3H-labeled complexes in tumor (Walker 256) of rats; type: in vivo, female Wistar rats; conditions: 10 mg/Kg, carotids, 1440 min
Procedure: The radioactivity of the tissues separated was measured in the following manner. […] The resulting ^3 H2 O was added to a scintillator ("AQUASOL-2", NEN) and then measured by liquid scintillation counter ("LSC-3600", ALOKA). The value of radioactivity so measured was calibrated by the external standard radiation source method.

[1] = Plasma concentration of 3H-labeled complexes in tumor-bearing rats (AUC); type: in vivo, female Wistar rats; conditions: 10 mg/Kg; for AUCo-oo in Plasma: carotids; for increase of retention in blood compared with the referential complexes (AUC): ratio to referential complexes
Procedure: Thus, the complexes which were obtained as the final products of Examples 17, 18 and 19 above and had the polyethylene glycol (PEG) contents of 6%, 21% and 43%, respectively, and of which the MTX portions were labelled with ^3 H, were prepared and employed as the ^3 H-labeled test compounds for use as Test Samples 1, 2 and 3. Further, the complexes same as those above-mentioned complexes except that the PEG portion was eliminated therefrom and the MTX portion was ^3 H-labeled, were also prepared and used as referential ^3 H-labeled compounds. In each of the complexes used as Test Samples 1, 2 and 3 and the complexes used as the referential complexes, the peptide chain which was bonded to the 2-amino group of the carboxymethylglucosamine unit of these tested complexes was Gly-Phe-Phe. The PEG portion present in the complexes as Test Samples 1, 2 and 3 was the PEG1 (molecular weight: 5,000) as described in Example 17.
In the following experiment, there were employed such tumor-bearing female Wistar rats which had received the subcutaneous transplantation of cancer cells, Walker 256, to an inguinal part and subsequently had been raised for 6 days. Each solution of the test sample was prepared for administration, by suitably diluting the ^3 H-labeled test sample complex with a solution of a corresponding non-radioactively labeled complex in physiological saline. Using three rats per group, the solution of the test sample was administered into the carotids of rats at a dose of 10 mg/Kg of the complex.
Under ether anesthesia, blood was sampled from the carotid of rats periodically at the ends of 30 minutes, 1 hour, 2 hours, 4 hours and 6 hours after the administration, and the blood was centrifuged to separate the plasma. Upon elapsed time of 24 hours after the administration, blood was collected from rats under ether enesthesia until the rats were sacrificed under exsanguination. Several tissues and organs were separated from the sacrificed rats. After weighing the whole or some parts of the tissues and organs, their radioactivities were measured.
The radioactivity of the tissues separated was measured in the following manner. After each sample of tissue was collected in a combustion cone and was dried, the sample was combusted in an automatic sample-combusting apparatus ("ASC-113", ALOKA). The resulting ^3 H2 O was added to a scintillator ("AQUASOL-2", NEN) and then measured by liquid scintillation counter ("LSC-3600", ALOKA). The value of radioactivity so measured was calibrated by the external standard radiation source method.
The test results are presented in FIG. 29 and FIG. 30 of the accompanying drawings as well as in Table 1 given hereinafter. FIG. 29 is a graph showing time-dependent variations in the concentration of each sample complex present in the plasma as measured up to the end of 24 hours after the administration of the complex. FIG. 30 is a graph showing the distributions of each sample complex present in tissues of the rat body which are expressed as the concentration of the complex in term of the percentages on the basis of the dose of the complex.

Sarcoma 180 = assay: Concentration of 3H-labeled compound in cancer tissue (Sarcoma 180) of mice; type: in vivo, male ICR mice; conditions: 20 mg/Kg, caudal vein, up to 24 hours, FIG. 19
Description: (§1) The N-acetylcarboxymethylchitosan--Gly-Gly-Gly--MTX complex of Example 2, in which the MTX portion had been ^3 H-labeled, was used as a test sample compound. In addition, an ^3 H-labeled product of the partially N-acetylated carboxymethylchitosan as obtained in the course of the process of Example 1 was employed as a referential sample.
(§2) In the following experiment, there were employed tumor-bearing male ICR mice which had received subcutaneous implantation of Sarcoma 180 and subsequently had been raised for 10 days. The test sample compound was dissolved in physiological saline. Using three mice per group, the solution of the test sample compound was administered at a dose of 20 mg/Kg through the caudal vein. At the ends of 15 minutes, 30 minutes, 1 hour, 2 hours, 6 hours and 24 hours after the administration, the femoral artery and femoral vein of the mice of the respective groups were cut to collect blood samples. The radioactivity of a serum sample, which had been obtained by centrifuging each of the blood samples, and the radioactivity of a cancer tissue taken from the corresponding mouse were measured by the combustion method. In this way, the concentrations of the test sample compound present in the serum and the cancer tissue were evaluated.
(§3) The test results are plotted in FIGS. 18 and 19 of the accompanying drawings. […]

[2] = Serum concentration of 3H-labeled compound after i.v. administration in tumor-bearing mice; type: in vivo, male ICR mice; conditions: 20 mg/Kg, caudal vein, 15 minutes to 24 hours, FIG. 18
Description: as §1, §2, §3

N-acetylcarboxymethylchitosan-(PEG1)--Gly-Phe-Phe--MTX [Test Sample 1]
Concentration of Sample in Tumor at end of 24 hrs (Walker 256): 0.22 % of dose/g
AUCo-oo in Plasma [1]: 20.85 % of dose · hr/ml
increase of retention in blood compared with the referential complexes (AUC) [1]: about 1.3 times

N-acetylcarboxymethylchitosan-(PEG1)--Gly-Phe-Phe--MTX [Test Sample 2]
Concentration of Sample in Tumor at end of 24 hrs (Walker 256): 0.35 % of dose/g
AUCo-oo in Plasma [1]: 46.20 % of dose · hr/ml
increase of retention in blood compared with the referential complexes (AUC) [1]: about 3 times

N-acetylcarboxymethylchitosan-(PEG1)--Gly-Phe-Phe--MTX [Test Sample 3]
Concentration of Sample in Tumor at end of 24 hrs (Walker 256): 0.44 % of dose/g
AUCo-oo in Plasma [1]: 45.52 % of dose · hr/ml
increase of retention in blood compared with the referential complexes (AUC) [1]: about 3 times

N-acetylcarboxymethylchitosan--Gly-Gly-Gly--MTX [Example 2]
concentration in cancer tissue versus simple polysaccharide (Sarcoma 180): can concentrate in a cancer tissue
retention in blood versus simple polysaccharide referential sample [2]: comparable to or longer than the retention of the simple polysaccharide
